Reference: patent US20260209334A1 (MAX PLANCK GESELLSCHAFT ZUR F RDERUNG DER WISSENSCHAFTEN E V, published 2026)

T1: human IL-17A homodimer, bacterially expressed construct (residues 40-155 with GSEDS spacer) (human, UniProt Q16552 40-155)
T1 chain: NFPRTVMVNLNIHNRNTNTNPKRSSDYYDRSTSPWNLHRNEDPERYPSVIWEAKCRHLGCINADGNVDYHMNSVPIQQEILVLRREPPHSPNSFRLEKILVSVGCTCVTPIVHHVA

T2: human IL-17F homodimer, bacterially expressed construct (residues 39-163 with GSEGE linker) (human, UniProt Q96PD4 39-163)
T2 construct: also called IL-17F dimer
T2 chain: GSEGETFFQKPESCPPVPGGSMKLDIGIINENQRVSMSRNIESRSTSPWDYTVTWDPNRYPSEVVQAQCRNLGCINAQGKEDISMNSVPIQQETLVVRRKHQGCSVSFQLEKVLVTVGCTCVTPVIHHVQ

T3: human IL-17F with C-terminal Avi-tag, biotinylated, immobilized on BLI sensors (human, UniProt Q96PD4 31-163, biotin on the C-terminal Avi-tag (BirA))
T3 construct: also called biotinylated IL-17F; not shown: C-terminal Avi-tag
T3 sequence: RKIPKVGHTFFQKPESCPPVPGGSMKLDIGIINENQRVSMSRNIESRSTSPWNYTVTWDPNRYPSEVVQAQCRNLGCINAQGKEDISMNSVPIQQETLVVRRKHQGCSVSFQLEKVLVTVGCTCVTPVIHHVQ

T4: recombinant human IL-17F (produced in HEK cells, Proteintech HZ-1116) (human, UniProt Q96PD4 31-163)
T4 sequence (looked up): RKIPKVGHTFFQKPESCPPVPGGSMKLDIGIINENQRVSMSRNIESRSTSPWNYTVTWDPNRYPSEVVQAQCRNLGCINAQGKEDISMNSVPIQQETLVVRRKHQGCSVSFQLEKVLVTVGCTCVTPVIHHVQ


How the values were obtained:
[1] = biological target: T5, human IL-17A with C-terminal Avi-tag, biotinylated, immobilized on BLI sensors (human, UniProt Q16552 24-155, biotin on the C-terminal Avi-tag (BirA)); test: BLI, biotinylated IL-17A immobilized on streptavidin sensors, monovalent VHH as analyte (25, 50, 100 nM), mass transport fit
T5 construct: also called biotinylated IL-17A; not shown: C-terminal Avi-tag

[2] = biological target: T1, human IL-17A homodimer, bacterially …; test: BLI, biotinylated VHH immobilized on streptavidin sensors, IL-17 as analyte (10, 20, 40 nM), mass transport fit; apparent value, avidity possible;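 also: wavelength shift (nm) signal, 800 s association then 800 s dissociation, reference from parallel sensors without VHH, avidity from immobilized VHH may lower apparent off-rates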
[3] = biological target: T6, human IL-17A/F heterodimer, bacterially expressed construct (human, UniProt Q16552 40-155; Q96PD4 39-163, limits assumed); test: as above
T6 construct: IL-17A unit with N68D, IL-17F unit with N83D and C137S, both with GSEDS spacer; already in the entries

[4] = biological target: T2, human IL-17F homodimer, bacterially …; test: as above
[5] = biological target: T5, human IL-17A with C-terminal Avi-tag, …; test: BLI, biotinylated IL-17A immobilized, monovalent VHH as analyte; 2:1 heterogenous model, high affinity component
[6] = biological target: T3, human IL-17F with C-terminal Avi-tag, …; test: BLI, biotinylated IL-17F immobilized, monovalent VHH as analyte; 2:1 heterogenous model, high affinity component
[7] = biological target: recombinant human IL-17A/F (produced in CHO cells, R&D Systems 5837-IL) (human, UniProt Q16552 24-155; Q96PD4 31-163, limits assumed); test: cell-based or functional assay
[8] = biological target: T4, recombinant human IL-17F (produced in …); test: cell-based or functional assay
[9] = biological target: recombinant human IL-17A (produced in HEK cells, Proteintech HZ-1113) (human, UniProt Q16552 24-155); test: cell-based or functional assay
[10] = biological target: T5, human IL-17A with C-terminal Avi-tag, …; test: BLI, biotinylated IL-17A immobilized, monovalent VHH as analyte
[11] = biological target: T3, human IL-17F with C-terminal Avi-tag, …; test: BLI, biotinylated IL-17F immobilized, monovalent VHH as analyte
[12] = biological target: T6, human IL-17A/F heterodimer, bacterially …; test: BLI, VHH immobilized, IL-17 as analyte; apparent KD with avidity; µM as printed (Table 3 uses pM)
[13] = biological target: T5, human IL-17A with C-terminal Avi-tag, …; test: BLI, biotinylated IL-17A immobilized on streptavidin sensors, monovalent VHH as analyte (20, 100 nM), 2:1 heterogenous fit, low affinity component

Chain of recombinant human IL-17A (produced in HEK cells, Proteintech HZ-1113) (Q16552 24-155 limits assumed): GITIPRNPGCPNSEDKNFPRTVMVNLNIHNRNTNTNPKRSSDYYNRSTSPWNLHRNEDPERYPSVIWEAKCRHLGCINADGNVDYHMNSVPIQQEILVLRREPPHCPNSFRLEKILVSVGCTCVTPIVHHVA
Chain of recombinant human IL-17A/F (produced in CHO cells, R&D Systems 5837-IL) (Q16552 24-155 limits assumed, chain 1 of 2, one chain of several): as the sequence (Q16552 24-155 limits assumed) above

Binder	Neutralization potency, ranking from 1 = the best to 4 (HEK-Blue IL-17 reporter cells) [7]	Neutralization potency, ranking from 1 = the best to 4 (HEK-Blue IL-17 reporter cells) [8]	Neutralization potency, ranking from 1 = the best to 4 (HEK-Blue IL-17 reporter cells) [9]	Kd [10]	Kd [11]	other results
Re42H11 (VHH, Class A, first generation; For the crystal it was made with a His14-ScSUMO tag that was cleaved off) VHH: QVQLVESGGGLVQAGGSLRLSCAASGLTASSYAMGWFRQAPGKEREFVAAISWISGGTKYADSVKGRFTMSRDNAKKQVYLEMNSLKPEDTAVYYCNDMPYGLDTRMDEYAYWGQGTQVTVSS						Kd [1]: 1 nM
Re42B03 with C-terminal Avi-Biotin-tag, biotinylated (VHH, biotin on the C-terminal Avi-tag (BirA), not shown: C-terminal Avi-Biotin-tag) VHH: QVQLVESGGGLVQAGGSLRLSCAASGLTGSSYAMGWFRQAPGKEREFVAAISWISGGTKYTDSVKDRFTMSRDYAKKQVYLEMNSLKPEDTAVYYCNDMPYGLDTRMDEYVYWGQGTQVTVSS						Kd [2]: ≤ 0.01 nM; koff [2]: ≤ 1e-07 s⁻¹; kon [2]: 120000 M⁻¹ s⁻¹; Kd [3]: ≤ 0.01 nM; koff [3]: ≤ 1e-07 s⁻¹; kon [3]: 340000 M⁻¹ s⁻¹; Kd [4]: ≤ 0.01 nM; koff [4]: ≤ 1e-07 s⁻¹; kon [4]: 260000 M⁻¹ s⁻¹
Re42B03 (VHH, Class A, first generation) VHH: QVQLVESGGGLVQAGGSLRLSCAASGLTGSSYAMGWFRQAPGKEREFVAAISWISGGTKYTDSVKDRFTMSRDYAKKQVYLEMNSLKPEDTAVYYCNDMPYGLDTRMDEYVYWGQGTQVTVSS						Kd [1]: 0.7 nM
Re42H11 with C-terminal Avi-Biotin-tag, biotinylated (VHH, biotin on the C-terminal Avi-tag (BirA), not shown: C-terminal Avi-Biotin-tag) VHH: QVQLVESGGGLVQAGGSLRLSCAASGLTASSYAMGWFRQAPGKEREFVAAISWISGGTKYADSVKGRFTMSRDNAKKQVYLEMNSLKPEDTAVYYCNDMPYGLDTRMDEYAYWGQGTQVTVSS						Kd [2]: ≤ 0.01 nM; koff [2]: ≤ 1e-07 s⁻¹; kon [2]: 120000 M⁻¹ s⁻¹; Kd [3]: ≤ 0.01 nM; koff [3]: ≤ 1e-07 s⁻¹; kon [3]: 360000 M⁻¹ s⁻¹; Kd [4]: ≤ 0.01 nM; koff [4]: ≤ 1e-07 s⁻¹; kon [4]: 270000 M⁻¹ s⁻¹
Bm42A03 (VHH, Class C, second generation) VHH: QVQLVESGGGLVQPGGSLRLSCVASGFTFSSFAMSWYRQDPGKERKLVAAITNDGGTTFYSDLVKGRFTISRDNTKNTVYLQMNNVKPDDAAVYYCMAVRGLYGSNWYDYPFELWGQGTQVTVSS	1 rank	1 rank	1 rank			Kd [5]: 0.15 nM; Kd [6]: 0.35 nM
Bm44G10 (VHH, Class C, second generation) VHH: QVQLVESGGGLVQPGGSLRLSCVASGFTFSSFAMSWYRQDPGRERKLVAAITNDGGTTFYSDLVKGRFTISRDNTKNTVYLQMNNVKPDDAAVYYCMAVRGLYGSNWYDYPFELWGQGTQVTVSS	1 rank	3 rank	1 rank			Kd [5]: 0.2 nM; Kd [6]: 0.35 nM
Re42B04a (VHH, Class A; Monovalent VHH) VHH: QVQLVESGGGLVQVGGSLRLSCEVSGLPVSSYAMGWFRQAPEKEREFVAAISWIGGDSRYAHFVKGRFTISRDNAKNTVHLQMDSLKPEDTAVYYCNDMPYGLDTRMDEYEYWGQGTQVTVSS	1 rank	2 rank	1 rank	0.05 nM	0.5 nM	Kd [1]: ≤ 0.01 nM
Re42B04 with C-terminal Avi-Biotin-tag, biotinylated (VHH, biotin on the C-terminal Avi-tag (BirA), not shown: C-terminal Avi-Biotin-tag) VHH: QVQLVESGGGLVQVGGSLRLSCEVSGLPVSSYAMGWFRQAPEKEREFVAAISWIGGDSRYAHFVKGRFTISRDNAKNTVHLQMDSLKPEDTAVYYCNDMPYGLDTRMDEYEYWGLGTQVTVSS						Kd [2]: ≤ 0.01 nM; koff [2]: ≤ 1e-07 s⁻¹; kon [2]: 110000 M⁻¹ s⁻¹; Kd [3]: ≤ 0.01 nM; koff [3]: ≤ 1e-07 s⁻¹; kon [3]: 240000 M⁻¹ s⁻¹; Kd [4]: ≤ 0.01 nM; koff [4]: ≤ 1e-07 s⁻¹; kon [4]: 140000 M⁻¹ s⁻¹; Kd [12]: ≤ 20000 nM
Bm42B11 (VHH, Class A, second generation) VHH: QVQLVESGGDLVQAGGSLRLSCSVSGLRVSSYAMGWFRQAPGKEREFVAAISWVGGDTRYADSVKGRFTMSRDNAKKQVYLEMNSLKPEDTAVYYCNDMPYGMETRMDDYASWGQGTQVTVSS	1 rank	2 rank	1 rank	≤ 0.01 nM	2 nM	
Bm18B05 (VHH, Class A, first generation) VHH: QVQLVESGGGLVQPGGSLRLSCAVSGRTFSSYAMGWFRRPPGKEREFVAAISWSGGDTKYADFVTDRFTISRDDAKSTVYLQMNSLKPEDTAVYYCNDMPYGLDTRMDEYEYWGQGTQVTVSS						Kd [1]: 2 nM
VHH662 (VHH, Control VHH of Ablynx, disclosed in WO2012156219) VHH: EVQLVESGGGSVQAGDSLRLSCAASGRANSINWFGWFRQTPGKEREFVAGIRWSDAYTEYANSVKGRFTISRDNAKNTVDLQMDSLKPEDTAVYYCVLDLSTVRYWGQGTQVTVSS	1 rank	4 rank	2 rank	0.115 nM	16 nM	
Bm43B02 (VHH, Class A, second generation) VHH: QVQLVESGGGLVQAGGSLNLSCVISRRTPSGYAMGWFRQASGKEREFVAAISWIGGGAVYADSVKGRFTMSRDNAKNTVYLQMNSLKPEDTAVYYCNDMPYGLDTTMDDYDYWGQGTLVTVSS	2 rank	2 rank	2 rank	0.13 nM	0.075 nM	
Bm44B11 (VHH, Class A, second generation) VHH: QVQLVESGGGLVQAGGSLNLSCVISRRTPSGYAMGWFRQASGKEREFVAAISWIGGGAVYADSVKGRFTMSRDNAKNTVYLQMNSLKPEDTAVYYCNDMPYGLDTTMDDYDYWGQGTQVTVSS	1 rank	1 rank	3 rank	0.15 nM	0.09 nM	
Bm42A09 (VHH, Class B, second generation) VHH: QVQLVESGGGLVRTGGSLRLSCSVSGDISSQSAMGWYRQVPGRQRELVAMIHTTKGDTYYADSVKGRFTISRINANNTIYLQMNNLKPEDTAIYYCTHNEPGDLYMGQGTLVTVSS	1 rank	1 rank	2 rank			KD2 [13]: 300 nM; Kd [5]: 0.8 nM; Kd [6]: ≤ 0.01 nM
Bm45G07 (VHH, Class D, second generation) VHH: QVQLVESGGGFVQAGGSLKLSCSVSGNTFITNHMGWFRQPPGKGREFVAGIRWSDGSTFYGDSVRGRFTISGDNAKHTLYLQMNSLKPDDTAVYYCYIDSGSDRYYGQGTLVTVSS	1 rank	2 rank	1 rank	0.06 nM	4 nM	
